According to publication PMC6085347, “Structural basis for reactivating the mutant TERT promoter by cooperative binding of p52 and ETS1” (Nature Communications, 2018):
Positions count from the first letter of the chain named. Names and notes keep the numbering of the source. Values belong to the binder of their own block, whether it stands above or below them.

Legend:
ETS1 296-441;p52-RHD = target: T1, ETS1 296-441;p52-RHD (human;human, UniProt P14921;Q00653 296-441;35-329, |); assay: ITC; 100 uM p52-RHD in cell; no enhancement over p52-DSD; ITC: 25 mM Tris-HCl pH 7.5, 200 mM NaCl, 3 mM TCEP, 8 °C. EMSA: 20 mM Tris-HCl pH 7.5, 150 mM NaCl, 4 °C, 1 h, 4-16% native PAGE; conditions: protein: recombinant;recombinant; tags: GST removed (PreScission, pGEX-6P-1);GST removed (PreScission, pGEX-6P-1); copies: 1;2; 5' overhang 1 nt at each end, 25 bp
T1 sequence 1: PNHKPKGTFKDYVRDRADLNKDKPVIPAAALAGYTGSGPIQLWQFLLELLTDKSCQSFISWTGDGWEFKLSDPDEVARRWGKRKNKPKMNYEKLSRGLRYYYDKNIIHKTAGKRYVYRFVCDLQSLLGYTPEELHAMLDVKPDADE
T1 sequence 2: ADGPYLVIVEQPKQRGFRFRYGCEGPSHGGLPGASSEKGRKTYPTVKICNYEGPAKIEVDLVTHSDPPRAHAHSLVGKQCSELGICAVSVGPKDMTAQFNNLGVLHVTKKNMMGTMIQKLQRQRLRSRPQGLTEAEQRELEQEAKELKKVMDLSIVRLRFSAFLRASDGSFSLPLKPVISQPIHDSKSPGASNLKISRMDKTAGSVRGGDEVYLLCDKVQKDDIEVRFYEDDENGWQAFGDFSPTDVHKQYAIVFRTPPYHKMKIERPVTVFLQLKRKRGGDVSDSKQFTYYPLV

ETS1 296-441;p52-DSD [1] = target: T2, ETS1 296-441;p52-DSD (human;human, UniProt P14921;Q00653 296-441;226-328, |); assay: ITC; 100 uM p52-DSD in cell; greater affinity than ETS1 alone; ITC: 25 mM Tris-HCl pH 7.5, 200 mM NaCl, 3 mM TCEP, 8 °C. EMSA: 20 mM Tris-HCl pH 7.5, 150 mM NaCl, 4 °C, 1 h, 4-16% native PAGE; conditions: protein: recombinant;recombinant; tags: GST removed (PreScission, pGEX-6P-1);GST removed (PreScission, pGEX-6P-1); copies: 1;2; 5' overhang 1 nt at each end, 25 bp
T2 sequence 1: T1 sequence 1
T2 sequence 2: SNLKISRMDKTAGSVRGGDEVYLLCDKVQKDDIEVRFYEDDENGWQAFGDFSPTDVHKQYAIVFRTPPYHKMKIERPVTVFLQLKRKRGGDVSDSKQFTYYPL

p52-RHD;ETS1 331-441 = target: T3, p52-RHD;ETS1 331-441 (human;human, UniProt Q00653;P14921 35-329;331-441, |); assay: X-ray crystallography; ETS1 contacts the DNA; p52-DBSD disordered and p52-DSD bound to ETS1; ITC: 25 mM Tris-HCl pH 7.5, 200 mM NaCl, 3 mM TCEP, 8 °C. EMSA: 20 mM Tris-HCl pH 7.5, 150 mM NaCl, 4 °C, 1 h, 4-16% native PAGE; conditions: protein: recombinant;recombinant; tags: GST removed (PreScission, pGEX-6P-1);GST removed (PreScission, pGEX-6P-1); chain copies: 2;1; 5' overhang 1 nt at each end, 15 bp
T3 sequence 1: T1 sequence 2
T3 sequence 2: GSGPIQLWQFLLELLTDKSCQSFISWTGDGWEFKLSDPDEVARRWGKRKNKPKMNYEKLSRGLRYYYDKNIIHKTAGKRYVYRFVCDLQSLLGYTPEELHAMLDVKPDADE

ETS1 296-441;p52-DSD [2] = target: T2, ETS1 296-441;p52-DSD; assay: ITC; 100 uM p52-DSD in cell; flanks make no contribution to affinity; ITC: 25 mM Tris-HCl pH 7.5, 200 mM NaCl, 3 mM TCEP, 8 °C. EMSA: 20 mM Tris-HCl pH 7.5, 150 mM NaCl, 4 °C, 1 h, 4-16% native PAGE; conditions: protein: recombinant;recombinant; tags: GST removed (PreScission, pGEX-6P-1);GST removed (PreScission, pGEX-6P-1); copies: 1;2; blunt
[3] = target: T4, Flag-tagged ETS1_(331–441), P14921; assay: FLAG pull-down, band densitometry; conditions: chain shown with the change;; parent: est. 1.0; read off a plot
T4 chain: T3 sequence 2

ETS1_(331–441), P14921 = target: T5, ETS1_(331–441), P14921; assay: ITC
T5 chain: T3 sequence 2

[4] = target: the molecule itself; assay: cross-linking + native gel or EMSA; cysteine mutants mixed at a molar ratio of 1:2, DTT removed, disulfide cross-linking with 30 µM CuCl2 and 100 µM phenanthroline for 1 h at 25 °C; 4–16% gradient blue native PAGE; reversed with 20 mM DTT
[5] = target: the molecule itself; assay: crystal structure; p52-RHD, ETS1_(331–441) and a 15 bp -146C>T TERT promoter DNA mixed 1:1:1; crystals at 18 °C in 100 mM HEPES pH 7.0, 2.0 M ammonium sulfate
ETS1_(331–441) [6] = target: T6, ETS1_(331–441) (human, UniProt P14921 331-441); assay: ITC
T6 chain: T3 sequence 2

ETS1_(296–441) [7] = target: T7, ETS1_(296–441) (human, UniProt P14921 296-441); assay: ITC; 8 °C; 25 mM Tris-HCl pH 7.5, 200 mM NaCl, 3 mM TCEP; 20 μM ETS1 fragment in the cell titrated with 200 μM p52-RHD in the syringe; single-site model
T7 chain: T1 sequence 1

ETS1_(331–441) [8] = target: T6, ETS1_(331–441); assay: as above
ETS1_(296–441) [9] = target: T7, ETS1_(296–441); assay: ITC
ETS1_(296–441) [10] = target: T7, ETS1_(296–441); assay: ITC

- ratio to parent [3]: 0.26
- Kd (ETS1_(331–441), P14921; chain shown with the change): 33.2 µM
- Ka (ETS1_(331–441), P14921; chain shown with the change;, parent: 1.48E5 ± 1.07E4): 30100 M⁻¹
B4: p52-RHD (residues 35–329), Q00653 R241A; M297A; K298A (protein)
chain: T1 sequence 2 with R207A, M263A, K264A

- fold reduction of binding against WT p52 (ETS1_(331–441) [8]): 5 fold
B9: p52-RHD RMK>A (domain or fragment)
chain: T1 sequence 2 with R207A, M263A, K264A

- ratio to parent [3]: 0.51
B10: p52-RHD (residues 35–329), Q00653 R241A (protein)
chain: T1 sequence 2 with R207A

The next lines start with the binder.

B1: 25 bp -146C>T TERT promoter DNA (dsDNA)
DNA 1: GTCCCGACCCCTTCCGGGTCCCCGGC
DNA 2: CGCCGGGGACCCGGAAGGGGTCGGGA
- binding result (ETS1 296-441;p52-RHD): binds
- binding result (ETS1 296-441;p52-DSD [1]): binds

B2: 15 bp -146C>T TERT promoter DNA (dsDNA)
DNA 1: GCCCTTCCGGGTCCCC
DNA 2: CGGGGACCCGGAAGGG
- binding result (p52-RHD;ETS1 331-441): binds

B3: 10 bp -146C>T TERT promoter DNA (dsDNA)
DNA 1: CCCTTCCGGG
DNA 2: CCCGGAAGGG
- binding result (ETS1 296-441;p52-DSD [2]): binds

B5: p52-RHD (residues 35–329), Q00653 K298A (protein)
chain: T1 sequence 2 with K264A
- ratio to parent [3]: 0.69

B6: p52-RHD (R241C, C57S, and C83S) (domain or fragment, human, UniProt Q00653 35-329, looked up)
chain: T1 sequence 2 with C23S, C49S, R207C
modifications: disulfide from Cys241 to Cys343 of ETS1_(331–441) (E343C and C350S) after cross-linking with CuCl2 and phenanthroline
- binding result [4]: binds

B7: p52-RHD (residues 35–329), Q00653 M297A (protein)
chain: T1 sequence 2 with M263A
- ratio to parent [3]: 0.72

B8: p52-RHD (residues 35–329) (domain or fragment, human, UniProt Q00653 35-329, looked up)
chain: T1 sequence 2
notes: In the crystal only residues 226-328 (p52-DSD) are ordered; two p52-DSD form a homodimer through a crystallographic 2-fold axis; also called WT p52
- binding result [5]: binds
- Ka (ETS1_(331–441) [6]): 148000 M⁻¹
- fold reduction of binding against ETS1 (331–441) (ETS1_(296–441) [7]): 3 fold
- Kd (ETS1_(331–441) [8]): 6.76 µM
- Ka (ETS1_(296–441) [9]): 52400 M⁻¹
- Kd (ETS1_(296–441) [10]): 19.1 µM
